Measured values as given in the Immune Epitope Database (IEDB).
pKd: −log10 of the molar value.

Experiments:
Assay in all cases: IEDB peptide-MHC binding, purified MHC/direct/fluorescence; filed as Kd, often an IC50 or EC50 that approximates it; ≥ and ≤ were set here for values at or beyond the usual limits of such assays
HLA-A*01:01 = target: HLA-A*01:01
HLA-A*02:01 = target: HLA-A*02:01
HLA-A*03:01 = target: HLA-A*03:01
HLA-A*24:03 = target: HLA-A*24:03
HLA-A*26:01 = target: HLA-A*26:01
HLA-A*30:01 = target: HLA-A*30:01
HLA-A*69:01 = target: HLA-A*69:01
HLA-B*07:02 = target: HLA-B*07:02
HLA-B*08:01 = target: HLA-B*08:01
HLA-B*15:01 = target: HLA-B*15:01
HLA-B*27:05 = target: HLA-B*27:05
HLA-B*35:01 = target: HLA-B*35:01
HLA-B*40:01 = target: HLA-B*40:01
HLA-B*44:02 = target: HLA-B*44:02
HLA-B*58:01 = target: HLA-B*58:01
HLA-A*11:01 = target: HLA-A*11:01
HLA-A*26:02 = conditions: source organism: Influenza A virus H3N2
HLA-A*26:03 = conditions: source organism: Influenza A virus H3N2
HLA-A*31:01 = target: HLA-A*31:01
HLA-A*68:02 = conditions: source organism: Influenza A virus (A/swine/Italy/809/1989(H3N2))
HLA-B*15:17 = conditions: source organism: Influenza A virus (A/swine/Italy/809/1989(H3N2))
HLA-B*18:01 = conditions: source organism: Influenza A virus (A/swine/Italy/809/1989(H3N2))
HLA-B*39:01 = conditions: source organism: Influenza A virus H3N2
HLA-B*48:01 = conditions: source organism: Influenza A virus (A/swine/Italy/809/1989(H3N2))
HLA-B*57:01 = conditions: source organism: Influenza A virus (A/swine/Italy/809/1989(H3N2))
[1] = source organism: Giardia intestinalis
[2] = source organism: Influenza A virus (A/swine/Italy/809/1989(H3N2))
[3] = source organism: Giardia lamblia ATCC 50803

For DYAMHGTVF, the pKd (HLA-A*01:01; [1]) was ≤ 4.70, the pKd (HLA-A*02:01; [1]) was ≤ 4.70 and the pKd (HLA-A*03:01; [1]) was ≤ 4.70. For the same sequence, the pKd (HLA-A*24:03; [1]) was 5.63, the pKd (HLA-A*26:01; [1]) was ≤ 4.70 and the pKd (HLA-A*30:01; [1]) was ≤ 4.23. The pKd (HLA-A*69:01; [1]) was ≤ 4.70, the pKd (HLA-B*07:02; [1]) was 5.06 and the pKd (HLA-B*08:01; [1]) was 4.84. For the same sequence, the pKd (HLA-B*15:01; [1]) was 5.42, the pKd (HLA-B*27:05; [1]) was ≤ 4.70 and the pKd (HLA-B*35:01; [1]) was 7.21. For the same sequence, the pKd (HLA-B*40:01; [1]) was ≤ 4.70, the pKd (HLA-B*44:02; [1]) was ≤ 4.70 and the pKd (HLA-B*58:01; [1]) was ≤ 5.00.

With EEIRRIWRQ the pKd (HLA-A*01:01; [2]) was ≤ 4.70, the pKd (HLA-A*02:01; [2]) was ≤ 4.70 and the pKd (HLA-A*03:01; [2]) was ≤ 4.70. For the same sequence, the pKd (HLA-A*11:01; [2]) was ≤ 4.70, the pKd (HLA-A*26:02) was ≤ 4.70 and the pKd (HLA-A*26:03) was ≤ 4.70. For the same sequence, the pKd (HLA-A*31:01; [2]) was ≤ 4.70, the pKd (HLA-A*68:02) was ≤ 4.70 and the pKd (HLA-A*69:01; [2]) was ≤ 4.70. The pKd (HLA-B*07:02; [2]) was ≤ 4.70, the pKd (HLA-B*15:01; [2]) was ≤ 4.70 and the pKd (HLA-B*15:17) was ≤ 4.70. For the same sequence, the pKd (HLA-B*18:01) was 5.04, the pKd (HLA-B*27:05; [2]) was ≤ 4.70 and the pKd (HLA-B*39:01) was ≤ 4.70. For the same sequence, the pKd (HLA-B*40:01; [2]) was ≤ 4.70, the pKd (HLA-B*44:02; [2]) was ≤ 4.70 and the pKd (HLA-B*48:01) was ≤ 4.70. The pKd (HLA-B*57:01) was ≤ 4.70 and the pKd (HLA-B*58:01; [2]) was ≤ 4.70.

FMGRLGPEY was tested, and the pKd (HLA-A*01:01; [3]) was 5.39, the pKd (HLA-A*02:01; [3]) was ≤ 4.70 and the pKd (HLA-A*03:01; [3]) was ≤ 4.70. For the same sequence, the pKd (HLA-A*11:01; [3]) was ≤ 4.70, the pKd (HLA-A*24:03; [3]) was ≤ 5.30 and the pKd (HLA-A*26:01; [3]) was ≤ 4.70. The pKd (HLA-A*30:01; [3]) was 4.79, the pKd (HLA-A*31:01; [3]) was ≤ 4.70 and the pKd (HLA-A*69:01; [3]) was ≤ 4.70. For the same sequence, the pKd (HLA-B*08:01; [3]) was ≤ 4.70, the pKd (HLA-B*15:01; [3]) was 6.86 and the pKd (HLA-B*27:05; [3]) was ≤ 4.70. The pKd (HLA-B*35:01; [3]) was 6.93, the pKd (HLA-B*40:01; [3]) was ≤ 4.70 and the pKd (HLA-B*44:02; [3]) was ≤ 4.70. The pKd (HLA-B*58:01; [3]) was ≤ 4.70.
